Reference: PMC2233703

Key:
[1] = target: sulfonylurea receptor SUR1 (UniProt Q09427)
[2] = target: sulfonylurea receptor SUR1 (UniProt Q09427); remark: listed apart in the source
[3] = target: sulfonylurea receptor SUR1 (UniProt Q09427); remark: listed apart in the source

UniProt Q09427, sequence (Q09427 whole entry): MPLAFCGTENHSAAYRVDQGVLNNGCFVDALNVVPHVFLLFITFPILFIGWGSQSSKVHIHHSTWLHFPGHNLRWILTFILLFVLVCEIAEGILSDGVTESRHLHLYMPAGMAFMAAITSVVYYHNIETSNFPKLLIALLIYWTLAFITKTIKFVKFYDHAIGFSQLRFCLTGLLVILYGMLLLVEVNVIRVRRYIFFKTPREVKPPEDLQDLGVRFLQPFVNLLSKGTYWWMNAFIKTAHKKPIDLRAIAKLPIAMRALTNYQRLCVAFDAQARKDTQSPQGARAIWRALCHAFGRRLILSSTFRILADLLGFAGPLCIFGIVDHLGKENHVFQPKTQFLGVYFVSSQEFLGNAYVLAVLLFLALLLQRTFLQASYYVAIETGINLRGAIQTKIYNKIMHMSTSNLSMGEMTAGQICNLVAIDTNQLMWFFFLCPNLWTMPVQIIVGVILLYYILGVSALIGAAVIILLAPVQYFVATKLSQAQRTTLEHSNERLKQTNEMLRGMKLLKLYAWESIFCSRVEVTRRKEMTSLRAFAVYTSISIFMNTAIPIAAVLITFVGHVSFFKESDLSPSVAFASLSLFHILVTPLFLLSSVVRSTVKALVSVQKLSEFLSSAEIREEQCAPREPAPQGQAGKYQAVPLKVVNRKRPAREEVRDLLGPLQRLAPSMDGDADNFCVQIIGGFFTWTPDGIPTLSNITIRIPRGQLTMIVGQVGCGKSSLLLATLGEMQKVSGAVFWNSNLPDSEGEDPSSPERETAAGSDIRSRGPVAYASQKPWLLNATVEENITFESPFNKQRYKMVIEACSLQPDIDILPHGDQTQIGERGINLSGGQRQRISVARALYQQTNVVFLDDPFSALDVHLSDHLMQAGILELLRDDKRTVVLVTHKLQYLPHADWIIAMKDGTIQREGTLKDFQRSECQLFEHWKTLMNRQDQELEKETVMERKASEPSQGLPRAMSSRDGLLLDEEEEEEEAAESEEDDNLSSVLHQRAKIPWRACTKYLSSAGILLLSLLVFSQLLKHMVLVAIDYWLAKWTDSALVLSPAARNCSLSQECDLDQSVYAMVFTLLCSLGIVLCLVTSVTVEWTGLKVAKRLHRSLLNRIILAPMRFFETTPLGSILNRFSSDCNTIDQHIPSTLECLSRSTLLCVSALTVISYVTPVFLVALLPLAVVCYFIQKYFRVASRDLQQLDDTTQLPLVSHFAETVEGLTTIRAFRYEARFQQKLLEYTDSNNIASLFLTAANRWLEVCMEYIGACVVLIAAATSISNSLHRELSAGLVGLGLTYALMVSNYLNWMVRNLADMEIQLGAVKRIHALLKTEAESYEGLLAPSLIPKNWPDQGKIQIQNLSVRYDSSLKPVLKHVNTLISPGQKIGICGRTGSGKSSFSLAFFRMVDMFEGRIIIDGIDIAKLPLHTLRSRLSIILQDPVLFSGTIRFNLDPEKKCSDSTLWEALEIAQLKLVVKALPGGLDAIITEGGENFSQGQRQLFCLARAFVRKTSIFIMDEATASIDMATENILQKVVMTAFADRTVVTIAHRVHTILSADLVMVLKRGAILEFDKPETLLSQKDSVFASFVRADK

reactivation by MgADP of ATP-inhibited channels, inside-out patch clamp [1] | inhibition of channel activity by 200 nM glyburide, inside-out patch clamp [2] | inhibition of channel activity by 0.5 μM glyburide, inside-out patch clamp [3] | Binder
46% | 45% | – | Kir6.2 wild-type linked to GFP at the COOH terminus (natural protein) MLSRKGIIPEEYVLTRLAEDPAEPRYRTRERRARFVSKKGNCNVAHKNIREQGRFLQDVFTTLVDLKWPHTLLIFTMSFLCSWLLFAMVWWLIAFAHGDLAPGEGTNVPCVTSIHSFSSAFLFSIEVQVTIGFGGRMVTEECPLAILILIVQNIVGLMINAIMLGCIFMKTAQAHRRAETLIFSKHAVITLRHGRLCFMLRVGDLRKSMIISATIHMQVVRKTTSPEGEVVPLHQVDIPMENGVGGNGIFLVAPLIIYHVIDSNSPLYDLAPSDLHHHQDLEIIVILEGVVETTGITTQARTSYLADEILWGQRFVPIVAEEDGRYSVDYSKFGNTIKVPTPLCTARQLDEDRSLLDALTLASSRGPLRKRSVAVAKAKPKFSISPDSLS
6% | – | 5.5% | Kir6.2 mutant R176C linked to GFP (natural protein) MLSRKGIIPEEYVLTRLAEDPAEPRYRTRERRARFVSKKGNCNVAHKNIREQGRFLQDVFTTLVDLKWPHTLLIFTMSFLCSWLLFAMVWWLIAFAHGDLAPGEGTNVPCVTSIHSFSSAFLFSIEVQVTIGFGGRMVTEECPLAILILIVQNIVGLMINAIMLGCIFMKTAQAHCRAETLIFSKHAVITLRHGRLCFMLRVGDLRKSMIISATIHMQVVRKTTSPEGEVVPLHQVDIPMENGVGGNGIFLVAPLIIYHVIDSNSPLYDLAPSDLHHHQDLEIIVILEGVVETTGITTQARTSYLADEILWGQRFVPIVAEEDGRYSVDYSKFGNTIKVPTPLCTARQLDEDRSLLDALTLASSRGPLRKRSVAVAKAKPKFSISPDSLS
